Source: paper PMC10397247
Read-outs that look alike come from different tables or passages of the source.

B1: P8bHq (peptide)
chain: DKIQELKKENEELERKIWELKKENQELEQ
B2: P5-AA-1HGe-D (peptide)
chain: DENAALEADIAALDAKNAALKAEIAALEG
B3: APC2724-AA (peptide)
chain: DEAAALEAKLAAEKAEAAALEAENAALEG
B4: P5-AA-1HGe-T (peptide)
chain: DENAALEATIAALTAKNAALKAEIAALEG
B5: P5-AA-1HGe-W (peptide)
chain: DENAALEAWIAALWAKNAALKAEIAALEG
B6: P5-AA-1HGe-A (peptide)
chain: DENAALEAAIAALAAKNAALKAEIAALEG
B7: O3-bA (peptide)
chain: DEIAQLEQKIAELKQENAELEWENAQLEQ
B8: P5-AA-1HGe-M (peptide)
chain: DENAALEAMIAALMAKNAALKAEIAALEG
B9: P5-AA-1HGe-R (peptide)
chain: DENAALEARIAALRAKNAALKAEIAALEG
B10: P5-AA-1HGe-Q (peptide)
chain: DENAALEAQIAALQAKNAALKAEIAALEG
B11: P5-AA-1HGe-S (peptide)
chain: DENAALEASIAALSAKNAALKAEIAALEG
B12: P5-AA-1HGe-Y (peptide)
chain: DENAALEAYIAALYAKNAALKAEIAALEG

How the values were obtained:
P8bHq = target: T1, P8bHq; assay: two-hybrid library CCNG1;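 note: natural log of median RNA to DNA barcode read ratio; higher means stronger binding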
T1 chain: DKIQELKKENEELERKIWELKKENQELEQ

P9bHq = target: T2, P9bHq; assay: two-hybrid library CCNG1;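 note: natural log of median RNA to DNA barcode read ratio; higher means stronger binding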
T2 chain: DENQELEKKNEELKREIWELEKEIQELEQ

P6-AA-1HGe-D = target: T3, P6-AA-1HGe-D; assay: two-hybrid library CCmax;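 note: natural log of median RNA to DNA barcode read ratio; higher means stronger binding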
T3 chain: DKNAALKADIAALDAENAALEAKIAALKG

P6-AA-1HGe-M = target: T4, P6-AA-1HGe-M; assay: two-hybrid library CCmax; conditions: mean of both orientations;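 note: natural log of median RNA to DNA barcode read ratio; higher means stronger binding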
T4 chain: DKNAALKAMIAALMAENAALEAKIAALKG

P6-AA-1HGe-W = target: T5, P6-AA-1HGe-W; assay: two-hybrid library CCmax; conditions: mean of both orientations;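 note: natural log of median RNA to DNA barcode read ratio; higher means stronger binding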
T5 chain: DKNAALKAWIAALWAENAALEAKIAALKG

P6-AA-1HGe-T = target: T6, P6-AA-1HGe-T; assay: two-hybrid library CCmax; conditions: mean of both orientations;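 note: natural log of median RNA to DNA barcode read ratio; higher means stronger binding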
T6 chain: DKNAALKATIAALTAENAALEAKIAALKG

P6-AA-1HGe-R = target: T7, P6-AA-1HGe-R; assay: two-hybrid library CCmax; conditions: mean of both orientations
T7 chain: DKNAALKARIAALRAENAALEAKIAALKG

P6-AA-1HGe-A = target: T8, P6-AA-1HGe-A; assay: two-hybrid library CCmax; conditions: mean of both orientations
T8 chain: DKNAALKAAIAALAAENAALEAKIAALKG

P6-AA-1HGe-H = target: T9, P6-AA-1HGe-H; assay: two-hybrid library CCmax; conditions: mean of both orientations
T9 chain: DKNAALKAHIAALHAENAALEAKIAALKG

P6-AA-1HGe-Q = target: T10, P6-AA-1HGe-Q; assay: two-hybrid library CCmax; conditions: mean of both orientations
T10 chain: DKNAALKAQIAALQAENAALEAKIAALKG

P6-AA-1HGe-S = target: T11, P6-AA-1HGe-S; assay: two-hybrid library CCmax; conditions: mean of both orientations
T11 chain: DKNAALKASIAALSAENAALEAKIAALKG

APC8516-AA = target: T12, APC8516-AA; assay: two-hybrid library CCmax; conditions: mean of both orientations
T12 chain: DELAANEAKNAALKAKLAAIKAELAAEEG

APC6088-AA = target: T13, APC6088-AA; assay: two-hybrid library CCmax; conditions: mean of both orientations
T13 chain: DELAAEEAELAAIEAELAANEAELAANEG

APC3354-AA = target: T14, APC3354-AA; assay: two-hybrid library CCmax; conditions: mean of both orientations
T14 chain: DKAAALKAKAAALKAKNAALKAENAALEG

APC542-AA = target: T15, APC542-AA; assay: two-hybrid library CCmax; conditions: mean of both orientations
T15 chain: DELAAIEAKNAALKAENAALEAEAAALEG

APC9291-AA = target: T16, APC9291-AA; assay: two-hybrid library CCmax; conditions: mean of both orientations
T16 chain: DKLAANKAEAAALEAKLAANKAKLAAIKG

APC9806-AA = target: T17, APC9806-AA; assay: two-hybrid library CCmax; conditions: mean of both orientations
T17 chain: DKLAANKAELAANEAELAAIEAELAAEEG

APC7524-AA = target: T18, APC7524-AA; assay: two-hybrid library CCmax; conditions: mean of both orientations
T18 chain: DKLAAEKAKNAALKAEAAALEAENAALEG

APC9141-AA = target: T19, APC9141-AA; assay: two-hybrid library CCmax; conditions: mean of both orientations
T19 chain: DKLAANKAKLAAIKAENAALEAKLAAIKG

APC9182-AA = target: T20, APC9182-AA; assay: two-hybrid library CCmax; conditions: mean of both orientations
T20 chain: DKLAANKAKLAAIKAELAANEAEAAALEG

APC2981-AA = target: T21, APC2981-AA; assay: two-hybrid library CCmax; conditions: mean of both orientations
T21 chain: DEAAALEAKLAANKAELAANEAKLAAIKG

APC5531-AA = target: T22, APC5531-AA; assay: two-hybrid library CCmax; conditions: mean of both orientations
T22 chain: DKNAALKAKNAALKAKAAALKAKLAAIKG

APC8401-AA = target: T23, APC8401-AA; assay: two-hybrid library CCmax; conditions: mean of both orientations
T23 chain: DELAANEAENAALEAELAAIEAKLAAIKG

APC3323-AA = target: T24, APC3323-AA; assay: two-hybrid library CCmax; conditions: mean of both orientations
T24 chain: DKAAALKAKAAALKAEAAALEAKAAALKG

APC5009-AA = target: T25, APC5009-AA; assay: two-hybrid library CCmax; conditions: mean of both orientations
T25 chain: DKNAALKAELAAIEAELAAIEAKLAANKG

APC2724-AA = target: T26, APC2724-AA; assay: two-hybrid library CCmax
T26 chain: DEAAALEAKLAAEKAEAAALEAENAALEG

APC3881-AA = target: T27, APC3881-AA; assay: two-hybrid library CCmax; conditions: mean of both orientations
T27 chain: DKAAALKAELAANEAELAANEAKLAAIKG

APC4336-AA = target: T28, APC4336-AA; assay: two-hybrid library CCmax; conditions: mean of both orientations
T28 chain: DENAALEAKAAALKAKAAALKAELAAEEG

APC4100-AA = target: T29, APC4100-AA; assay: two-hybrid library CCmax
T29 chain: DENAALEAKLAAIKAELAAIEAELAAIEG

APC3265-AA = target: T30, APC3265-AA; assay: two-hybrid library CCmax; conditions: mean of both orientations
T30 chain: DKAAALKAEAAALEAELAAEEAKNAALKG

APC2811-AA = target: T31, APC2811-AA; assay: two-hybrid library CCmax; conditions: mean of both orientations
T31 chain: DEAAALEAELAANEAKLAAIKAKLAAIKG

O8-bA = target: T32, O8-bA; assay: two-hybrid library CCNG1
T32 chain: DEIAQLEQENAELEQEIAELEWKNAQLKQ

O3-bA = target: T33, O3-bA; assay: two-hybrid library CCNG1
T33 chain: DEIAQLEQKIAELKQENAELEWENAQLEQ

O6-bA = target: T34, O6-bA; assay: two-hybrid library CCNG1
T34 chain: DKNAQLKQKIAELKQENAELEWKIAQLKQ

O9-bA = target: T35, O9-bA; assay: two-hybrid library CCNG1
T35 chain: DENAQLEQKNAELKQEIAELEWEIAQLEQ

O7-bA = target: T36, O7-bA; assay: two-hybrid library CCNG1
T36 chain: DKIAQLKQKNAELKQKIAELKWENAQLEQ

O4-bA = target: T37, O4-bA; assay: two-hybrid library CCNG1
T37 chain: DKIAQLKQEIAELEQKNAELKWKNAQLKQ

O5-bA = target: T38, O5-bA; assay: two-hybrid library CCNG1
T38 chain: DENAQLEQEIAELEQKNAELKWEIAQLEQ

| Binder | interaction score (P6-AA-1HGe-D; mean of both orientations) | interaction score (P6-AA-1HGe-M) | interaction score (P6-AA-1HGe-W) | interaction score (P6-AA-1HGe-T) | interaction score (P6-AA-1HGe-R) | interaction score (P6-AA-1HGe-A) | interaction score (P6-AA-1HGe-H) | interaction score (P6-AA-1HGe-Q) | interaction score (P6-AA-1HGe-S) | other results |
| --- | --- | --- | --- | --- | --- | --- | --- | --- | --- | --- |
| B1 |  |  |  |  |  |  |  |  |  | interaction score (P8bHq): -0.229; interaction score (P9bHq): -1.36 |
| B2 | -1.28 | 0.758 | -0.238 | 1.14 | 1.62 | 0.812 | 0.69 | 1.12 | -0.145 |  |
| B3 |  |  |  |  |  |  |  |  |  | interaction score (APC8516-AA): -1.9; interaction score (APC6088-AA): -1.76; interaction score (APC3354-AA): -1.48; interaction score (APC542-AA): -1.75; interaction score (APC9291-AA): -1.76; interaction score (APC9806-AA): -1.79; interaction score (APC7524-AA): -1.54; interaction score (APC9141-AA): -3.52; interaction score (APC9182-AA): -1.95; interaction score (APC2981-AA): -1.68; interaction score (APC5531-AA): -1.53; interaction score (APC8401-AA): -1.54; interaction score (APC3323-AA): -1.8; interaction score (APC5009-AA): -1.67; interaction score (APC2724-AA): -1.55; interaction score (APC3881-AA): -2.62; interaction score (APC4336-AA): -2.23; interaction score (APC4100-AA): -1.68; interaction score (APC3265-AA): -1.62; interaction score (APC2811-AA): -1.76 |
| B4 |  | 2.18 | 1.71 | 2.05 | 2.02 | 2.2 | 2.03 | 2.32 | 1.91 | interaction score (P6-AA-1HGe-D): 1.95 |
| B5 | 0.67 | 1.92 | 0.892 | 2.11 | 1.42 | 1.97 | 1.34 | 2.17 | 1.46 |  |
| B6 | 1.06 | 2.21 | 1.57 | 2.02 | 2.03 | 2.12 | 1.73 | 2.31 | 1.63 |  |
| B7 |  |  |  |  |  |  |  |  |  | interaction score (O8-bA): -1.12; interaction score (O3-bA): -0.685; interaction score (O6-bA): -0.618; interaction score (O9-bA): -0.712; interaction score (O7-bA): -0.831; interaction score (O4-bA): 2.34; interaction score (O5-bA): -0.75 |
| B8 | 1.82 | 2.35 | 2.11 | 2.3 | 1.93 | 2.5 | 2.03 | 2.27 | 1.92 |  |
| B9 | 1.74 | 1.53 | 1.25 | 1.66 | 1.45 | 2.25 | 1.64 | 1.9 | 1.48 |  |
| B10 | 1.58 | 2.3 | 1.97 | 2.32 | 2.05 | 2.25 | 2.05 | 2.07 | 2.03 |  |
| B11 | 0.0672 | 1.86 | 0.993 | 1.76 | 2.01 | 1.91 | 1.75 | 2.1 | 1.13 |  |
| B12 | 1.37 | 1.95 | 1.32 | 2.24 | 1.82 | 1.95 | 1.95 | 2.22 | 1.94 |  |
